Data published in PMC2665906, “Structure of mouse IP-10, a chemokine” (Acta Crystallographica Section D: Biological Crystallography, 2008).

Target: the molecule itself
Assay: crystal structure; hanging-drop vapour diffusion; protein 10 mg/ml in 50 mM Tris-HCl pH 8.0; 0.1 M Tris-HCl pH 8.0, 0.2 M CaCl2, 35% PEG 3350, 289 K; space group C2, four molecules in the asymmetric unit; 2.5 Å

B1: Mouse interferon-γ-inducible protein (IP-10) (natural protein, UniProt P17515 22-98, looked up)
chain: IPLARTVRCNCIHIDDGPVRMRAIGKLEIIPASLSCPRVEIIATMKKNDEQRCLNPESKTIKNLMKAFSQKRSKRAP
notes: Mouse IP-10 (CXCL10), cloned and expressed as described by Campanella et al. (2003) with some modifications; The model holds residues 1-68 (A), 1-67 (B), 4-68 (C) and 4-67 (D); No tag is mentioned; C-terminal residues beyond 67/68 were not seen in the electron density; also called mouse IP-10; CXCL10
In the case of B1, the “stoichiometry N” value is reported as 4.
